Measured values: IntAct's records for PubMed 19490895

B1: Regulatory protein NPR1 (Arabidopsis thaliana (Mouse-ear cress)), P93002 (parent)
chain: MDTTIDGFADSYEISSTSFVATDNTDSSIVYLAAEQVLTGPDVSALQLLSNSFESVFDSPDDFYSDAKLVLSDGREVSFHRCVLSARSSFFKSALAAAKKEKDSNNTAAVKLELKEIAKDYEVGFDSVVTVLAYVYSSRVRPPPKGVSECADENCCHVACRPAVDFMLEVLYLAFIFKIPELITLYQRHLLDVVDKVVIEDTLVILKLANICGKACMKLLDRCKEIIVKSNVDMVSLEKSLPEELVKEIIDRRKELGLEVPKVKKHVSNVHKALDSDDIELVKLLLKEDHTNLDDACALHFAVAYCNVKTATDLLKLDLADVNHRNPRGYTVLHVAAMRKEPQLILSLLEKGASASEATLEGRTALMIAKQATMAVECNNIPEQCKHSLKGRLCVEILEQEDKREQIPRDVPPSFAVAADELKMTLLDLENRVALAQRLFPTEAQAAMEIAEMKGTCEFIVTSLEPDRLTGTKRTSPGVKIAPFRILEEHQSRLKALSKTVELGKRFFPRCSAVLDQIMNCEDLTQLACGEDDTAEKRLQKKQRYMEIQETLKKAFSEDNLELGNSSLTDSTSSTSKSTGGKRSNRKLSHRRR
partner: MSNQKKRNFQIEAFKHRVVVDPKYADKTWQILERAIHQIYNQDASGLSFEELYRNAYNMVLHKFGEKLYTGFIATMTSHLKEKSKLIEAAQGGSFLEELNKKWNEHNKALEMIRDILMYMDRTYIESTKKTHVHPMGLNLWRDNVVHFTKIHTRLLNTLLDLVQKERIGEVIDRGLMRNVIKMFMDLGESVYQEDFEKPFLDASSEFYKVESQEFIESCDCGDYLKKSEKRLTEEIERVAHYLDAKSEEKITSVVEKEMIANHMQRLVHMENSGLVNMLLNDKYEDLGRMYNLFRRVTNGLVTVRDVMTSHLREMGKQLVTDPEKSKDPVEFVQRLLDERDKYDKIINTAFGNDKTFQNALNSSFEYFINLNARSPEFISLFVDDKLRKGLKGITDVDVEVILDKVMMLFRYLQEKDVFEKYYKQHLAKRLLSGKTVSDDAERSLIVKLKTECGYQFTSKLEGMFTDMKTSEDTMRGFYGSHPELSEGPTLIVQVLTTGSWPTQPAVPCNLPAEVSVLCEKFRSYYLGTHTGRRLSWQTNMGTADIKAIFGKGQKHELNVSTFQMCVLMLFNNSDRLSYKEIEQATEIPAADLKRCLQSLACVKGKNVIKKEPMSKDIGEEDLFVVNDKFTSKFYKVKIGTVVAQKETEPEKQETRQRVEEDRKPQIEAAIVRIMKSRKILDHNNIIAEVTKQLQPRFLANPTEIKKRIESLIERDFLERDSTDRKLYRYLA

Variants of: B1
Conditions: with cul3a_arath CUL3A

Row | effect of a mutation on the interaction | Variant
1 | decreasing interaction | MDTTIDGFADAYEIASTSFVATDNTDSSIVYLAAEQVLTGPDVSALQLLSNSFESVFDSPDDFYSDAKLVLSDGREVSFHRCVLSARSSFFKSALAAAKKEKDSNNTAAVKLELKEIAKDYEVGFDSVVTVLAYVYSSRVRPPPKGVSECADENCCHVACRPAVDFMLEVLYLAFIFKIPELITLYQRHLLDVVDKVVIEDTLVILKLANICGKACMKLLDRCKEIIVKSNVDMVSLEKSLPEELVKEIIDRRKELGLEVPKVKKHVSNVHKALDSDDIELVKLLLKEDHTNLDDACALHFAVAYCNVKTATDLLKLDLADVNHRNPRGYTVLHVAAMRKEPQLILSLLEKGASASEATLEGRTALMIAKQATMAVECNNIPEQCKHSLKGRLCVEILEQEDKREQIPRDVPPSFAVAADELKMTLLDLENRVALAQRLFPTEAQAAMEIAEMKGTCEFIVTSLEPDRLTGTKRTSPGVKIAPFRILEEHQSRLKALSKTVELGKRFFPRCSAVLDQIMNCEDLTQLACGEDDTAEKRLQKKQRYMEIQETLKKAFSEDNLELGNSSLTDSTSSTSKSTGGKRSNRKLSHRRR [S11A;S15A]
